Here are results for two molecules from article doi:10.1101/2023.02.28.530553.

One data set addresses T1, MBP-OsRFL (Oryza sativa L., UniProt Q0JAI1 1-389).
T1 sequence: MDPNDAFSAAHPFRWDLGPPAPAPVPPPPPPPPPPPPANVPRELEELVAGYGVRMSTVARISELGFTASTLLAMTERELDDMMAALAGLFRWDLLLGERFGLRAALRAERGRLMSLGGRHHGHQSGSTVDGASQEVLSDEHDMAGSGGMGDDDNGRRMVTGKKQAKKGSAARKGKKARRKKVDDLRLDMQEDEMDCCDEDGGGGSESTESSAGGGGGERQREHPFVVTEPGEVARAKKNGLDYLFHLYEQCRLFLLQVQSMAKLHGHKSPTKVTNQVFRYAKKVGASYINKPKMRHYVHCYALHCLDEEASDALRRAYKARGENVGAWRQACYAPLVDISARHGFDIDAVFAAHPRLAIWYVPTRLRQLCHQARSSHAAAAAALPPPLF
Kind of data set: EMSA. A general note: Mobility shift assays separate free from complexed probe on a gel.

The target of a further data set is MBP-OsNLP3 (Oryza sativa L., UniProt Q5NB82 1-938). Kind of data set: EMSA.
Sequence of MBP-OsNLP3 (Q5NB82 whole entry): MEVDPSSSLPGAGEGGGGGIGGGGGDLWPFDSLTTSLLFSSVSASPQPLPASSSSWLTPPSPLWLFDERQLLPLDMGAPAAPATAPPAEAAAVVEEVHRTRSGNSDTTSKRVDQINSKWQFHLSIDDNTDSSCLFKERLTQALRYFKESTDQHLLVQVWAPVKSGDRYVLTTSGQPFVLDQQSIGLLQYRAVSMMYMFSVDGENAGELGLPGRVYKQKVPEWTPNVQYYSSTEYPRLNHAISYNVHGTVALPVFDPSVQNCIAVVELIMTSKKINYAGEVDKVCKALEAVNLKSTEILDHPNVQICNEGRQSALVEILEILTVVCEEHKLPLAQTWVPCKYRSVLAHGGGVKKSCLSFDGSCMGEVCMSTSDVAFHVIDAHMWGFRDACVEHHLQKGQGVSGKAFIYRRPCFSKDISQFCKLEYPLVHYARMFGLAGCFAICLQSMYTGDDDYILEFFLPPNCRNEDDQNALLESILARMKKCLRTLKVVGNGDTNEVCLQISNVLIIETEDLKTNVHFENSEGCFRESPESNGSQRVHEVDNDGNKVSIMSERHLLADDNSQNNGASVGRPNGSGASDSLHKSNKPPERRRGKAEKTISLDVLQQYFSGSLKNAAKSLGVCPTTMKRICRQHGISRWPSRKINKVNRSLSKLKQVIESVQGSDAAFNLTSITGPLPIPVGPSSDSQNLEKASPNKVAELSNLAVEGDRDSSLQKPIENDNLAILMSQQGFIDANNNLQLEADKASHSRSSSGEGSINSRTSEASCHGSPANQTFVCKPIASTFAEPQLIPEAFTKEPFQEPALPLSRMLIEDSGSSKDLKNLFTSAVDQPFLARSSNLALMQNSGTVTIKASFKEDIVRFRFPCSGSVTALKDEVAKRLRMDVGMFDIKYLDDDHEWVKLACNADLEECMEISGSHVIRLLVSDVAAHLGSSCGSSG

B1: OsMOC1 promoter probe (EMSA/OsMOC1) (dsDNA)
DNA 1: TGGTGTTACCACTGGCTTGATCA
DNA 2: TGATCAAGCCAGTGGTAACACCA
B1: the binding result with MBP-OsRFL is “binds”.

B2: OsRFL promoter NRE probe (EMSA/OsRFL-3) (dsDNA)
DNA 1: TAATACTGTTGTTTGATACTAATGAGTCAAGTTG
DNA 2: CAACTTGACTCATTAGTATCAAACAACAGTATTA
In the case of B2, in the data set with MBP-OsNLP3, the binding result is reported as “binds”.
